The results in this text go back to US20220289843A1 (ELPIS BIOPHARMACEUTICALS, published 2022).

In assay [1] the target is endogenous CD19 expressed on cell surface (Daudi cells, Raji cells, DLBCL tissue) (UniProt P15391). As to the kind of experiment: FACS on Raji cells, secondary reagent alone (background).
For assay [2], the target named is T1, full-length human CD19 fused with flag and Myc tags at the C-terminus, expressed on HEK293 or K562 cells (human, UniProt P15391 20-556).
T1 construct: whole, on cells; also called CD19/HEK293 cells; CD19-expressing HEK293 cells; not shown: C-terminal flag and Myc tags (pCMV6-Entry vector)
T1 sequence (looked up): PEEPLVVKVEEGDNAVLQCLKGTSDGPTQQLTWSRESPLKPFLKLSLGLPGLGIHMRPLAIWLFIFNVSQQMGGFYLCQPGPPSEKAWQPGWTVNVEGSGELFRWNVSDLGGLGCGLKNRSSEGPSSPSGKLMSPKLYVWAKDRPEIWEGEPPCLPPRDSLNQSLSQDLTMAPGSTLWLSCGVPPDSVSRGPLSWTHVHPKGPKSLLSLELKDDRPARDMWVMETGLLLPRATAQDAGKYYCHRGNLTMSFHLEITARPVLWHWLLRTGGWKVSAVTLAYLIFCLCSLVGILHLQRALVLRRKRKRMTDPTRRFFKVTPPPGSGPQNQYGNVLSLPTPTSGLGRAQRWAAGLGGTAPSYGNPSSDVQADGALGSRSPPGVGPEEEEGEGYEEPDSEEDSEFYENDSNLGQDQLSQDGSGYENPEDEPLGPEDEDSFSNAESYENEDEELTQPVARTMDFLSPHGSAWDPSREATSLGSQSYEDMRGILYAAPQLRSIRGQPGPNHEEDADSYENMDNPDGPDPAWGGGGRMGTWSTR
As to the kind of experiment: FACS on CD19/HEK293 cells, scFv titration, anti-His Alexa 488 detection. The protocol:
The diluted samples were incubated with CD19-expressing HEK293 cells (CD19/HEK293 cells) in 96 wells plate on ice for 1 hour. Cells were spun down at 1200 rpm for 5 minutes at 4° C. to remove unbound antibodies. Cells were then washed once with 200 μL of full medium per well. Samples were mixed with an Alexa fluor 488-conjugated anti-His antibody (secondary antibody, 100 μL, 1:1000 diluted) and incubated at 4° C. for 30 minutes in dark. Samples were then spun down at 1200 rpm for 5 minutes at 4° C. and washed twice with 200 uL of 1×PBS per well. The resultant samples were reconstituted in 200 uL of 1×PBS and read on Guava EasyCyte. Analysis was done by counting only Alexa Fluor 488-positive cells and then plotted in Prism 8.1 software.

The target of assay [3] is T1, full-length human CD19 fused with flag …. As to the kind of experiment: FACS titration on CD19/HEK293 cells, anti-His Alexa Fluor 488, positive cell counts; 20 nM FMC63 IgG present as competitor. As for the experimental part:
Purified anti-CD19 scFv antibodies were titrated from 100 nM with 2-fold serial dilution. […] Cells were spun down at 1200 rpm for 5 minutes at 4° C. Samples were mixed with an Alexa fluor 488-conjugated anti-His antibody (100 uL, 1:1000 diluted) and incubated at 4° C. for 30 minutes in the dark. The samples were spun down at 1200 rpm for 5 minutes at 4° C. and washed twice with 200 μL of 1×PBS per well. The resultant samples were then reconstituted in 200 uL of 1×PBS and read on Guava EasyCyte. Analysis was done by counting only Alexa Fluor 488-positive cells and then plotted in Prism 8.1 software.

The target of a further assay is T2, human CD3ε/Fc (human, UniProt P07766 23-126, limits assumed).
T2 construct: Immobilised on the ELISA plate at 2 ug/mL; not shown: Fc
T2 sequence (P07766 23-126 limits assumed): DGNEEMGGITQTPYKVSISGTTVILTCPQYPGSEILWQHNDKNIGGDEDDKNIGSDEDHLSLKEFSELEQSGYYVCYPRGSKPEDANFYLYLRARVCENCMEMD
Kind of assay: ELISA, human CD3ε/Fc immobilised, BiTE serially diluted. As for the experimental part: Further, an ELISA assay was developed to determine the EC50 of anti-CD19/CD3 BiTE antibodies. Briefly, 384 well plate was immobilized with human CD3ε/Fc at final concentration of 2 μg/mL in 1×PBS in total volume of 25 uL per well. The plate was incubated overnight at 4° C. followed by blocking with 80 uL of superblock per well for 1 hour. Anti-CD19/CD3 BiTE proteins were serial diluted, and 25 μL was added to CD3ε immobilized wells and incubated for 1 hour with shaking. The CD3ε binding was detected by adding 25 μL of anti-Flag HRP diluted at 1:5000 in 1×PBST. In between each step, the plate was washed 3 times with 1×PBST in a plate washer. The plate was then developed with 20 μL of TMB substrate for 5 mins and stopped by adding 20 μL of 2N sulfuric acid. The plate was read at OD450 nm Biotek plate reader and then plotted in Prism 8.1 software.
A general note: In an ELISA, binding on a coated surface is turned into a signal by an enzyme label.

Assay [4] deals with T3, endogenous CD19 expressed on cell surface (Daudi cells, Raji cells, DLBCL tissue) (UniProt P15391 20-556, limits assumed).
T3 construct: whole, on cells; also called CD19+ Raji cells; CD19-positive DLBCL tissue
T3 sequence (looked up): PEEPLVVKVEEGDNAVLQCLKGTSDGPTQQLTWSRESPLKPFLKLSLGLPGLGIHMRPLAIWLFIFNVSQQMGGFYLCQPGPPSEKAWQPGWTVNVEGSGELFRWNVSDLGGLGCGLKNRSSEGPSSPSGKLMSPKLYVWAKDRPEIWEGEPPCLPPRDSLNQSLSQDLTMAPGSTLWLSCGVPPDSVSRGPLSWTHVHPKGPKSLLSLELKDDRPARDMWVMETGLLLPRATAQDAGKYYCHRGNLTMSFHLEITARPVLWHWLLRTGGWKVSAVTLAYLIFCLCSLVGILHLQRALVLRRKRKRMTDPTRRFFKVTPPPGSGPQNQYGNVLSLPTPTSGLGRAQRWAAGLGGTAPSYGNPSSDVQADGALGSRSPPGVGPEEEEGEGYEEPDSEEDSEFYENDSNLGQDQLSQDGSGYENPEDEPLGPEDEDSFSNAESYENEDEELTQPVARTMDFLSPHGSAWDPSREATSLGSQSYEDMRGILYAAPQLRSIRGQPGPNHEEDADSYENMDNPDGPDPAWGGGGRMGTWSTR
As to the kind of experiment: FACS on CD19+ Raji cells, BiTE serially diluted from 200 nM. The protocol: (§1) A solution containing 200 nM of purified anti-CD19/CD3 BiTE antibodies were serial diluted in full medium and incubated with Raji cells in 96 wells plate on ice for one hour. Cells were spun down at 1200 rpm for 5 minutes at 4° C. to remove primary antibodies. Cells were then washed once with 200 uL of full medium per well. Samples were detected with premixed anti-His Biotin Streptavidin Alexa fluor 647 by adding 100 uL of diluted secondary antibody and incubated at 4° C. for 30 minutes in the dark. Samples were spun down at 1200 rpm for 5 minutes at 4° C. and washed twice with 200 uL of 1×PBS per well. Reconstituted samples in 200 uL of 1× PBS and read on Attune NxT cytometer. Analysis was done by Attune NxT software plotting the overlay histogram of CD19 or CD3 binding with secondary antibodies.

Assay [5] addresses T4, CD3 on CD3+ Jurkat T cells (Homo sapiens (Human), UniProt P07766 23-207).
T4 construct: also called CD3+ Jurkat cells
Kind of assay: FACS on CD3+ Jurkat cells, anti-His biotin/streptavidin Alexa Fluor 647, positive cell counts. The protocol: as §1
A similarly FACS assay was performed to examine the binding activity of the exemplary bispecific anti-CD19/anti-CD3 antibodies to CD3+ Jurkat T cells, following the descriptions above.

Assay [6] concerns the target T3, endogenous CD19 expressed on cell …. As to the kind of experiment: FACS on Raji cells, anti-His biotin/streptavidin Alexa 647 detection. As for the experimental part:
as §1

Assay [7] has the same target. Kind of assay: FACS on CD19+ Raji cells, BiTE serially diluted from 200 nM; CD19+ Raji cells, FACS. As for the experimental part: as §1

T4 sequence (P07766 23-207 limits assumed): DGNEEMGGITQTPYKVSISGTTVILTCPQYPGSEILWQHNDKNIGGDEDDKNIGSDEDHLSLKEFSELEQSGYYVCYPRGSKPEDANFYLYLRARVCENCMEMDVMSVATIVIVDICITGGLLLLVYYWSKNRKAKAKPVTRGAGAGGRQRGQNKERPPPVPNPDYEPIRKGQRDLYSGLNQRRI

Regarding secondary antibody control, the % Raji cells stained positive in assay [1] turned out to be 1.3%.

B1: 2018EP187-A12 (scFv, VH-VL orientation) (scFv)
scFv: QVQLQQWGAGLLKPSETLSLTCAVYGGSFSGYYWTWIRQPPGKGLEWIGEINHGGSSNYNPSLKSRVTISVDTSKKQFSLNLNSVTAADTAVYYCARGLGYRSGWYEVENAFDIWGQGTMVTVSSGGGGSGGGGSGGGGSQPVLTQPPSVSVAPGQTARITCGGNKIESRSVHWYQQKPGQAPVLVVYDDGARPSGIPERLSGSNSGDTATLTISRVEPGDEADYYCQVWDGSSVIFGGGTKLTVL
notes: Purified from E. coli periplasmic expression (pET22b); fully human scFv from mRNA display; also called 2018EP187-Al2; not shown: C-terminal flag and 6xHIS tag
The EC50 is the concentration that produces a half-maximal response. Read a low EC50 as greater potency. By EC50 (read off the curve) is commonly meant the midpoint of the concentration-response curve. For B1, the EC50 in assay [2] came to 0.751 nM. Also, the “EC50 (read off the curve)” value in assay [3] was in the range of 1.6 to 3 nM.

B2: BiTE EP383 (bispecific antibody)
chain: EVQLVESGAEVKKPGASVKVSCKASGYTFTSYYMHWVRQAPGQGLEWMGIINPSGGSTSYAQKFQGRVTITADESTSTAYMELSSLRSEDTAVYYCAREGGYKDFDYWGQGTLVTVSSGGGGSGGGGSGGGGSDIVMTQSPSSLSASVGDRVTVTCRASQSIDTYLNWYQQKPGKAPKLLIYTASTLQSGVPSRFSGSGSGTDFTLTISSLQPEDFATYYCQQSYSAPRTFGQGTKVEIKGGGGSEVQLVESGGGLVQPGGSLRLSCAASGFTFSTYAMNWVRQAPGKGLEWVGRIRSKYNNYATYYADSVKGRFTISRDDSKNTLYLQMNSLRAEDTAVYYCVRHGNFGDSYVSWFAYWGQGTLVTVSSGGGGSGGGGSGGGGSGGGGSQAVVTQEPSLTVSPGGTVTLTCGSSTGAVTTSNYANWVQQKPGKSPRGLIGGTNKRAPGVPARFSGSLLGGKAALTISGAQPEDEADYYCALWYSNHWVFGGGTKLTVLHHHHHH
notes: also called anti-CD19/anti-CD3 BiTE antibody
Take B2: the EC50 with human CD3ε/Fc is 3.17 nM; in assay [4], 0.846 nM. Besides, in assay [5], the “EC50 (read off the curve)” value was approximately 0.8 nM. Besides, the “% Raji cells stained positive” value in assay [6] was approximately 80%.

B3: BiTE EP381 (bispecific antibody)
chain: QVQLQQWGAGLLKPSETLSLTCAVYGGSFSGYYWTWIRQPPGKGLEWIGEINHGGSSNYNPSLKSRVTISVDTSKKQFSLNLNSVTAADTAVYYCARGLGYRSGWYEVENAFDIWGQGTMVTVSSGGGGSGGGGSGGGGSQPVLTQPPSVSVAPGQTARITCGGNKIESRSVHWYQQKPGQAPVLVVYDDGARPSGIPERLSGSNSGDTATLTISRVEPGDEADYYCQVWDGSSVIFGGGTKLTVLGGGGSEVQLVESGGGLVQPGGSLRLSCAASGFTFSTYAMNWVRQAPGKGLEWVGRIRSKYNNYATYYADSVKGRFTISRDDSKNTLYLQMNSLRAEDTAVYYCVRHGNFGDSYVSWFAYWGQGTLVTVSSGGGGSGGGGSGGGGSGGGGSQAVVTQEPSLTVSPGGTVTLTCGSSTGAVTTSNYANWVQQKPGKSPRGLIGGTNKRAPGVPARFSGSLLGGKAALTISGAQPEDEADYYCALWYSNHWVFGGGTKLTVLHHHHHH
notes: as for B2
Turning to B3, the EC50 with human CD3ε/Fc was determined as 5.57 nM; in assay [7], 0.766 nM. Further, the “EC50 (read off the curve)” value in assay [5] was approximately 0.8 nM. Besides, in assay [6], the “% Raji cells stained positive” value was approximately 92.3%.

B4: 2018EP142-D09 (scFv, VH-VL orientation) (scFv)
scFv: EVQLVESGAEVKKPGASVKVSCKASGYTFTSYYMHWVRQAPGQGLEWMGIINPSGGSTSYAQKFQGRVTITADESTSTAYMELSSLRSEDTAVYYCAREGGYKDFDYWGQGTLVTVSSGGGGSGGGGSGGGGSDIVMTQSPSSLSASVGDRVTVTCRASQSIDTYLNWYQQKPGKAPKLLIYTASTLQSGVPSRFSGSGSGTDFTLTISSLQPEDFATYYCQQSYSAPRTFGQGTKVEIK
notes: Purified from E. coli periplasmic expression; also called EP142-D9; not shown: C-terminal flag and 6xHIS tag
Take B4: in assay [2], the EC50 is 7.18 nM. That is a single-digit nanomolar value.

B5: 2018EP188-B10 (scFv, VH-VL orientation) (scFv)
scFv: QVQLVQSGGGVVQPGKSLRLSCAASGFPFSSYTMHWVRQPPGEGLEWVALISYDGRNLYYADSVKGRFTISRDNSYNSLYLQLSGLRAEDTALYYCARDINRDHFYGMDLWGPGTTVTVSSGGGGSGGGGSGGGGSSYELTQPPSVSVAPGQTARIPCGGTNIGSKGVHWYQQKPGQAPVLVIYYDHSRPSGIPERFSGSNSGNTAALTISRVEAGDEADYYCQVWEGTSDHPVFGGGTKLTVL
notes: Purified from E. coli periplasmic expression; not shown: C-terminal flag and 6xHIS tag
In assay [2], B5 showed an EC50 of 1.26 nM. This EC50 is about 5.7-fold lower than that of the molecule before.

B6: BiTE EP382 (bispecific antibody)
chain: QVQLVQSGGGVVQPGKSLRLSCAASGFPFSSYTMHWVRQPPGEGLEWVALISYDGRNLYYADSVKGRFTISRDNSYNSLYLQLSGLRAEDTALYYCARDINRDHFYGMDLWGPGTTVTVSSGGGGSGGGGSGGGGSSYELTQPPSVSVAPGQTARIPCGGTNIGSKGVHWYQQKPGQAPVLVIYYDHSRPSGIPERFSGSNSGNTAALTISRVEAGDEADYYCQVWEGTSDHPVFGGGTKLTVLGGGGSEVQLVESGGGLVQPGGSLRLSCAASGFTFSTYAMNWVRQAPGKGLEWVGRIRSKYNNYATYYADSVKGRFTISRDDSKNTLYLQMNSLRAEDTAVYYCVRHGNFGDSYVSWFAYWGQGTLVTVSSGGGGSGGGGSGGGGSGGGGSQAVVTQEPSLTVSPGGTVTLTCGSSTGAVTTSNYANWVQQKPGKSPRGLIGGTNKRAPGVPARFSGSLLGGKAALTISGAQPEDEADYYCALWYSNHWVFGGGTKLTVLHHHHHH
notes: as for B2
For the molecule B6, the EC50 in the assay with human CD3ε/Fc was 7.58 nM; in assay [4] it was 3.81 nM. The “EC50 (read off the curve)” value in assay [5] is approximately 4 nM. Besides, in assay [6], the “% Raji cells stained positive” value was approximately 81.1%.
